Test results taken from patent US20090136500A1 (CISTHERA, published 2009).

Assays:
[1] = target: T1, mouse PAI-1 (mouse, UniProt P22777 23-402, limits assumed, n-terminal biotin label (in the P-ELISA)); assay: P-ELISA
T1 construct: also called murine PAI-1
T1 sequence (looked up): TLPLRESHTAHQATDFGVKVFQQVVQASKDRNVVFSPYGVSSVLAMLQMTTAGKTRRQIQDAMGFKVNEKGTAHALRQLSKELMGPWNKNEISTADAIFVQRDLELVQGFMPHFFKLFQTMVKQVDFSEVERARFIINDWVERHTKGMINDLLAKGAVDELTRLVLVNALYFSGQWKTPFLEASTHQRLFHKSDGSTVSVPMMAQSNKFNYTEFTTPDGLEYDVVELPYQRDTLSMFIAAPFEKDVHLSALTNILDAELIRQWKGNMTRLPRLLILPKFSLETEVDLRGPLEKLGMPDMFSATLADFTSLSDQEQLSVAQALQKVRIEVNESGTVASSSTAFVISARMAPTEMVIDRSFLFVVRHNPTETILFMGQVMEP

[2] = target: T2, PAI-1 (antigen of Example 11, species not stated); assay: SPR-type biosensor, antibody captured on anti-human IgG surface at 5 densities, 25 C, global 1:1 fit
T2 construct: Its method text reads as if hP-1 and mP-1 were the antigens run over captured antibody, that is human and mouse PAI-1
T2 sequence (P05121 24-402): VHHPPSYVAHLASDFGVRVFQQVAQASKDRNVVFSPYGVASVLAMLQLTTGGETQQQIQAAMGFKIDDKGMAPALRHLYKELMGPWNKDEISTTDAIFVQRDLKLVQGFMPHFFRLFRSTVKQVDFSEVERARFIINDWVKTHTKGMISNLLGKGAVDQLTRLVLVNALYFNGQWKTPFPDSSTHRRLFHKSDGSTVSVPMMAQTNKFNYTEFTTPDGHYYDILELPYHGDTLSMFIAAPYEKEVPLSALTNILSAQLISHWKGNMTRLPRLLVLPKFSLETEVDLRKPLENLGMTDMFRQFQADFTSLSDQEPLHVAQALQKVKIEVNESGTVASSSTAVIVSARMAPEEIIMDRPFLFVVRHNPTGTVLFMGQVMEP
Protocol: This experiment was conducted to measure the binding constants for hP-1 (humanized mAb CT140) and mP-1 (mouse antibody 33B8).
hP-1 was captured onto an anti-human IgG surface (Cat-tag goat mAb) at 5 different surface densities. hP-1 and mP-1 were diluted to a starting concentration of 100 nM and tested in a 3-fold dilution series using PBS with 0.005% Tween-20 and 0.1 mg/ml BSA. Binding data were collected at 25° C. The association phase was monitored for 5 minutes and the dissociation phase was monitored for 2.5 hours. The response data for each antigen over the 5 different density mAb surfaces were globally fit to a simple 1:1 interaction model. A fit to the data was determined (data not shown) a binding constants were determined at 25° C.

[3] = target: T3, rat PAI-1 (rat, UniProt P20961 24-402, n-terminal biotin label (in the P-ELISA)); assay: P-ELISA: biotin-labeled PAI-1 on streptavidin/Neutravidin coated wells, HRP-conjugated secondary antibody, O.D. 450. Target taken from the title printed in the panel; the legend paragraph 67 names FIG. 12C as mouse
T3 sequence (looked up): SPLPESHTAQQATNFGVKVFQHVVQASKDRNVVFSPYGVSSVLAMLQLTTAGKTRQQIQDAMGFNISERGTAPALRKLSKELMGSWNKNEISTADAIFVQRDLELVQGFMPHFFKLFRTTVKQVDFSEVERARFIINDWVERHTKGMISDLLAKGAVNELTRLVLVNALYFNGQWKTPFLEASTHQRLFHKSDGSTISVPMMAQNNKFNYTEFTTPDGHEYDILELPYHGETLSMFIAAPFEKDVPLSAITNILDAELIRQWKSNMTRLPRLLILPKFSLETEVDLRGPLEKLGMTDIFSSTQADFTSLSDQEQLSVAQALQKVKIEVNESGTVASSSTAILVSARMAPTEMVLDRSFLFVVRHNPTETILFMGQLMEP
Protocol: All reagents are brought to room temperature (18-23° C.) and dilutions are made in Wash Buffer (1×TBS, 0.1% BSA, 0.05% Tween). Briefly, protocol steps are as follows: [0546] Add 100 μL of Neutravidin™ Pierce#31000 (0.5 μg/ml in TBS) to 96-well Immulon-4 plates. Incubate 1 hour at room temperature (RT). [0547] Wash wells 3 times with 200 μl Wash Buffer. [0548] Add 50 μL of biotinylated biomolecule (0.06 nM) Incubate 1 hour at RT. [0549] Wash plate 3 times in Wash Buffer. [0550] Add 100 μL of 1° Ab Incubate 30 min RT [0551] Wash plate 3 times in Wash Buffer. [0552] Add 50 μL of […] (1:10,000) Incubate 30 min RT [0553] Wash plate 4 times in Wash Buffer. [0554] Add 100 μl TMB Reagent (substrate). Incubate at room temperature. [0555] Add 100 μL of 2 M Sulfuric Acid to stop development of the substrate. [0556] Plates were read using a […] filter with a 615-620 nm filter as the reference.
Binding of CT140 to rat, mouse, rabbit and human PAI-1 was determined by P-ELISA (see FIG. 12). The relative affinity of CT140 is human=rabbit>mouse>rat (FIG. 12A, FIG. 12B, FIG. 12C and FIG. 12D, respectively).

fold greater affinity relative to the parent mouse anti-PAI-1 [1]: > 10 fold
Kd [2]: 0.015 nM
koff [2]: 8e-06 s⁻¹
kon [2]: 530000 M⁻¹ s⁻¹
binding result [3]: binds
B1: CT140 (humanized version of murine monoclonal antibody 33B8, IgG4 with the hinge of IgG1) (antibody, V domains shown)
VH: QVQLVQSGAEVKKPGASVKVSCKASGYTFTNYGMNWVRQAPGQGLEWMGWINTYTGEPTYTDDFKGRFTMTLDTSISTAYMELSRLRSDDTAVYYCAKDVSGFVFDYWGQGTLVTVSS
VL: DIVMTQSPDSLAVSLGERATINCKSSQSLLNIIKQKNCLAWYQQKPGQPPKLLIYWASTRESGVPDRFSGSGSGTDFTLTISSLQAEDVAVYYCQQYYSYPYTFGQGTKLEIKR
notes: also called hP-1; humanized mAb CT140
